pEC50: −log10 of the molar value. Like-named read-outs stand apart in the source and are kept apart here.
What was measured:
porcine GHRH receptor [1] = molecular target: T1, porcine GHRH receptor (Sus scrofa, UniProt P34999)
T1 sequence (P34999 23-423): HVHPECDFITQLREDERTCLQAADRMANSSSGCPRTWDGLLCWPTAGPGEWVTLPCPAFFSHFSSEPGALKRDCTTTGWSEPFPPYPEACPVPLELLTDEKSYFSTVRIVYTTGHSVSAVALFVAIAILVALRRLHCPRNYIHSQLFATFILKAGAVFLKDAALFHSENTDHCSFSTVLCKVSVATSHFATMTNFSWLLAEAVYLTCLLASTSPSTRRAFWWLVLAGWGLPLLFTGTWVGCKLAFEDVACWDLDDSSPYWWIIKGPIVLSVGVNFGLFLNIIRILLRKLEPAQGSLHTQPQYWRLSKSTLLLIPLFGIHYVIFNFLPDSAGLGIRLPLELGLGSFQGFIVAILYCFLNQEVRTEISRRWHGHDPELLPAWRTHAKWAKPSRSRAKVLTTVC
Method: Assays for secreted alkaline phosphatase (SEAP) were performed using the chemiluminescent substrate in the Great Escape Detection Kit (Clontech). Culture medium was centrifuged at 14000 rpm in a microfuge centrifuge to remove cell debris. One hundred microliters of culture medium was then added to 300 ul of dilution buffer and heated at 65 C. for 30 minutes. Samples were cooled to room temperature and 100 ul of diluted sample was added to 100 ul of assay buffer. Samples were allowed to set for 5 minutes. One hundred microliters of the CSPD substrate solution was then added to each sample, incubated in the dark for 10 minutes and read on a Wallac LKB 1251 tube luminometer.
A stable transfection was performed in pGHRHr/293 cells using the cAMP-responsive SEAP reporter construct, pha180SEAPpur and stable transfectants were selected on the basis of puromycin resistance. pha180SEAPpur was transfected into pGHRHr/293 cells at 1, 2, 4, 8 and 16 ug/ml Opti-MEM using 8 ul of Lipofectin/ml in six well culture plates. After six hours, 1 ml of 20% fetal calf serum in DME (high glucose) was added to the cells. Twenty-four hours post-transfection the cells were subcultured 1:18 and were incubated in 250 ug/ml G418. Forty-eight hours post-transfection the media was replaced with selectable medium containing 250 ug/ml G418 and 1 ug/ml puromycin. Cells were incubated for three weeks and picked using Trypsin-EDTA treated Whatman 3MM paper and placed in 24 well plates. Upon growing stable isolates to confluency in T75 cm^2 culture flasks, pGHRHr/SEAP/293 cells were removed from flasks, plated in 24 well plates at 1×10^5 cells/well and stimulated with various doses of recombinant human GHRH (1-44)NH2. Media was collected and assayed for secreted placental alkaline phosphatase. Time course studies were performed over a 20 hour period to determine the optimal time to remove media samples from the tissue cultures during stimulation with GHRH. Comparisons of synthetic and recombinant human GHRH (1-44)NH2 (10^-13 to 10^-7 M) were also made. Data was analyzed using FOURFIT and ALLFIT, four parameter logistic curve fitting programs.
Sigmoidal dose response curves were fit by four parameter logistic curve fitting using FOURFIT (Grotjan and Steinberger, 1977), with multiple curves being compared using ALLFIT (DeLean et al.,1978). […] For cAMP and SEAP bioassays, a weighted regression analysis was performed with weights assigned as the reciprocal of predicted variance.

[2] = test system: rat anterior pituitary cell cultures; test: Rat primary anterior pituitary cell bioassay (GH release, radioimmunoassay); type: cell-based
Method: Rat anterior pituitary cell cultures were prepared for measuring the biological activity of GHRH, GHRH-induced release of GH was quantified using radioimmunoassay. Anterior pituitaries from fifteen female Sprague-Dawley rats were placed in a solution of Gey's media supplemented with 1% BSA, 0.25% glucose, and 0.2 mM MEM non essential amino acids at pH 7.4. Cell dispersion was performed in a solution of 400 U/ml trypsin in supplemented Gey's media for 30 minutes, 1750 KU/ml DNase-I in supplemented Gey's media for 5 minutes, and cells were triturated 15-30 times in 0.6 mg/ml lima bean trypsin inhibitor in supplemented Gey's media. Cells were filtered thru 160 u and 100 u mesh and centrifuged for 3 minutes at 1100 RPM and 12 minutes at 1600 rpm. Cell pellet was suspended at 3×10^5 cells/ml in DMEM supplemented with 10% fresh rat serum, 3% horse serum, 2.5% fetal calf serum, 2% Antibiotic-Antimycotic, 0.3% Fungizone, 0.45% glucose, 25 mM Hepes, 4 mM glutamine, 1 mM sodium pyruvate, 1 nM 3,3',5-triiodo-L -thyronine (T3), 100 nM dexamethazone and 10 uM MEM non essential amino acids. Cells were plated at 1 ml/well in 24 well plates and incubated at 8% CO2 at 37 C. for 68-72 hours. To stimulate cells with hormones, cells were washed three times in Gey's media supplemented with 1% BSA, 0.45% glucose and 25 mM Hepes. GHRH (1-44)NH2 was added to cells in 1 ml of supplemented Gey's media and cells were incubated for 3 hours before collecting media. Rat growth hormone levels were quantitated using a radioimmunoassay kit (Amersham).
(§1) Predicted variances in SEAP responses=0.32×(Y)^154.

porcine GHRH receptor [3] = molecular target: T1, porcine GHRH receptor; test: cAMP accumulation assay of the pGHRHr/293 cell line; type: cell-based; design: host or cells: human fetal kidney 293 cells (pGHRHr/293), stably expressing, G418-selected; conditions: pGHRHr/293 cells, 45 minutes, 10^-12 to 10^-6 M
Method: The media was then replaced with DME containing 0.1% BSA and 0.1 mM 3-isobutyl-1-methyl-xanthine. Doses of recombinant human GHRH (1-44)NH2 doses, 1×10^-6 M to 1×10^-12 M, were added and the cells were incubated for 45 minutes at 37° C. They were lysed in 60% ethanol and cAMP levels were quantitated by an immunoassay kit (Amersham). After performing the cAMP EIA, data was analyzed using Fourfit, a four parameter logistic curve fitting program.
as §1

porcine GHRH receptor [4] = molecular target: T1, porcine GHRH receptor; test: SEAP reporter expression in pGHRHr/293 cells transiently transfected with pha180SEAP; type: cell-based; design: host or cells: human fetal kidney 293 cells (pGHRHr/293), stably expressing, G418-selected; conditions: transiently transfected pGHRHr/293 cells, 6 hours
Method: Samples were allowed to set for 5 minutes.
The efficacy of the cAMP-responsive promoter was evaluated by transient transfection assays using 293 and pGHRHr/293 cells. Transiently transfected 293 cells were stimulated with 1 mM 8-bromo cAMP for 20 hours, while pGHRHr/293 cells were stimulated with various concentrations of recombinant human GHRH for 6 hours.
The ability of GHRH to stimulate the expression of the SEAP reporter cDNA was evaluated using pGHRHr/293 cells transiently transfected with pha180SEAP. Cells were incubated with various doses of GHRH(1-44)NH2 (10^-10 to 10^-6 M) for 6 hours and media was then assayed for SEAP activity.

[5] = pGHRHr/SEAP/293 cells, 16 hour incubation
[6] = primary rat pituitary cell cultures, 3 hours

Row | Substance | calculated ED50 of SEAP dose-response curves (porcine GHRH receptor [1]; after 12, 14, 16 and 18 hours of exposure, not significantly different) [nM] | SEAP activity increase over the 12-16 hour time points (porcine GHRH receptor [1]; at 18 hours) [fold] | SEAP activity increase over the 12-16 hour time points (porcine GHRH receptor [1]; at 20 hours) [fold] | increase in SEAP activity (porcine GHRH receptor [1]; pGHRHr/SEAP/293 #815-4, between 12 and 18 hours of exposure) [fold] | calculated ED50 of SEAP expression (porcine GHRH receptor [1]; [5]) | increase in SEAP expression (porcine GHRH receptor [1]; pGHRHr/SEAP/293 cells, 16 hour incubation, 10^-13 to 10^-7 M) [fold] | potency relative to synthetic GHRH (times as potent) (porcine GHRH receptor [1]; pGHRHr/SEAP/293 reporter bioassay, p<0.0001) [times] | ED50 of GH secretion [2, 6] | increase in GH secretion into the medium [2, 6] [fold] | potency relative to synthetic GHRH (times as potent) ([2]; rat pituitary bioassay) [times] | calculated ED50 of increase in intracellular cAMP concentration (porcine GHRH receptor [3]) | increase in the expression of the reporter protein (SEAP) (porcine GHRH receptor [4]; 10^-10 to 10^-6 M) [fold] | ED50 of SEAP reporter expression (porcine GHRH receptor [4]) [nM] | increase in SEAP expression (porcine GHRH receptor [1]; human, pghrhr/seap/293 cells, 16 h) [fold] | minimal detectable dose (porcine GHRH receptor [1]; [5]) [pM] | pEC50 (porcine GHRH receptor [1]; read-out: calculated ED50 of SEAP expression, pGHRHr/SEAP/293 cells, 16 hour incubation) | pEC50 ([2]; primary rat pituitary cell cultures, 3 hours, read-out: ED50 of GH secretion)
1 | recombinant human GHRH (1-44)NH2: Recombinant human GHRH(1-44)NH2 obtained from BioNebraska, Inc. as a powder | 0.261 | 1.3 | 1.7 | 4.8 | 4.26±0.28×10^-11 M | 9.1 | 1.83±0.13 | 2.16±1.04×10^-10 M | 3.1 | 1.69±0.67 | 8.4±3.6×10^-9 M | 2.5 | 0.51 | – | – | – | –
2 | synthetic human GHRH (1-44)NH2: Synthetic human GHRH(1-44)NH2 purchased from Peninsula; reference preparation [reference compound] | – | – | – | – | – | – | – | – | – | – | – | – | – | 9.1 | 1.47 | 10.11 | 9.44

— patent US6221617A, “Bioassay for growth hormone releasing hormone” (priority 1997, dated 2001)
